From the DeepSol protein solubility set come the findings set out here.

The nature of this data set: soluble on expression in E. coli; label from the status in PepcDB or PDB records.
On to “MGSDKIHHHHHHVKQRVAVIGAGPGGLACAMLLAGRGIDVTVYEKQPIVGGRTSRVQVGDYQFDRGPTFLNMPHILENLFTSIDLDMKDYLDLKALDPMYTLYFNGGKDHFTMTTDRDRMKQTIEQHFPGNGEGYDRFMAEQALKLAKLMPILQTKHDKLTDYLSPRVITALPRLSLGRSLYDVLSDYFTSEELKYAFTFQAKYLGMSAWECPGGFSILSYMEHAYGVHHPIGGMNQIPEAMKRAVEELGGTVHLNTGISQLILDGTTATGVILESGEHVLYDDVVVGADFAHAMNHLVPEGVLKKWSRPKIDRKKFSCSTFMLYLGVNKSFDAPHHTIYFADDYEKNVREMTQTLELSDDFSFYVQNPSIIDSTLAPEGKSSLYVLVPVPNNYSELDWAIEGPKLRRRVLDALEHRSPYTGVEAAIEVEEMFTPDDWEAMGVHQGATFNLGHQLTQMMYFRPHNRFEELEHVYLVGGGTHPGSGLPTIFESARITADLLTSEVGVGK”, for which the “soluble on expression in E. coli” value was “not soluble”.

Turning to “MSLSTLKREQIKKDLKDQEFDVVIIGGGITGAGIALDASERGMKVALVEMQDFAQGTSSRSTKLVHGGLRYLKQLQVGVVAETGRERAIVYENGPHVTTPERMLLPMHKGGSMGKFTTSIGLAMYDRLAGVKKAERKTMLNAKETLEKEPLVKKAGLKGGGSYVEYRTDDARLTIEVMKRAEEKGAKVINHTKSVHFTYDSNEKVNGIQVEDQISNETYPIKAKKVINASGPWVDEVRSGDYARNNKQLRLTKGVHIVIDQSKFPLGQAVYFDTEKDGRMIFAIPREGKAYVGTTDTFYDNNKTSPLANQEDRDYLIDAINYMFPDVNVADEDIESSWAGVRPLILEEGKDPSEISRKDEVWEGKSGLLTIAGGKLTGYRHMALEIVDLLSKRLKSEFGLKFDKCATKHLTISGGDVGGSANFDKFIEQKVEEAKSYQIDESTARHFASKYGSNAEELFKIAQTAQYQETGLPLDIYTELVYSIQNEMVYRPTDFFIRRTGKLYFKIDDVLNYKEQVIDVMAGLLGYTNIEKEAYTKELQIAIDEAQTGNHQPAVKELEHHHHHH”, the “soluble on expression in E. coli” value is “not soluble”.

On to “MGSDKIHHHHHHMTVEFDAARLGPILYYRGLEGDALQLAAMVMLPIGERPETLRTDAGDHAPTLLREIGRSAVWRYDFGLTPSCGSYRLGDQSYDVQTDLHGDMRIAFASCNGEEKGDLDRDQEERNRMWAHMCAEHRRAPFALLLQGGDQIYADEATEGHPLSEDWPDKAGRPRNAEELKDLADHLRLRFAERYVQALFGEAPSWIMARVPTLAIWDDHDICDGWGSLYRSKTHSEVGQCLYAVAREMYLLFQHAAVEGDIPDLFMDETGTSLSWQRALPGVKLLAPDLRAERGRRQVLGAYGWSAVEAMKPGSEHTFVISSVPLLGPRLSLVEGLMLMIPTMQKYEDDLRDQWQSRAHRKEWIRMLKQVIAWREEAPVTILSGEIHLATRAEMGPDETRVHQLVASGIAHRAPPQSYARSLGTLAGLGDAPVSGHPIRIHPLPGQSQRYTAERNYLELRRTHGKWHAVWHLEESGDTVPMVLE”, for which the “soluble on expression in E. coli” value was “not soluble”. Take “MAHHHHHHMNVKVEEGHPYNSYAEIKKRKTKKKKYIQNGRAGNNVEDNVDDNVEDNVGNNVDDNVEDNVGNNVDDNVDNNVDDNVKNRLSPKNNEKSNPRHKKKNTSKSPICDGRKKDIEFHTLYESDEKNNMVSRRSSVESIGEEKDMKADVKKNDINYKVKLNTLMLQSYLHKSYDKVSNILKKTSQTFMKKSLSYETEKVDDKTGNNIQNNNNEKNETHGNINYDQDDFVQNFNKIFNNMIENPTNDLSEEEKKFFEQNSQCINKMLHENASCQKNKKEKILKKYKKKIIENKDISSLYDKFKELLDERTLLFKLIIYYKNINYNYKQHIDKIQHSYDILISENEQLNLNNITLKKHIDLFRKGDNIKRDDNEYVK”: the “soluble on expression in E. coli” value is listed as “soluble”. As for “MSLDNLNLIVSLKDGGLLHFKRDEELGEINVFNFQEQGTLIPFLGFFGSGKQKDVVLDGVSSNSIVDALQIGGSGVVITLSVNKVLKLWNLDGHQNLSSLTIASDDNTWLPTIPSKYLKSYDQEDGKTIITLFINTKSGDSSKSMFVFKSFELESSNLHDLSDLSFQPELPNSLLFSSDVFYHESNFQNTIWFIQDYEVVGFGTSQLKYYILWKSNTSSILVEYTINPVNGAILSEGHHHHHH”, the “soluble on expression in E. coli” value is listed as “not soluble”.

As for “AHHHHHHGSYVIIMGAGRIGTLVAKMLENSGHDVAIIEMNKDRARAVSDIVSGLVIEGDATDQNILESANVRNADAFVALTGKDDANILACILAKHLNPRIMTILRITDPRKKKIFEEVKDLKKYFDVVVSPEDIAANYIFRVVITPGFDRVLLPREGAEIIQFHIDENSKVAGKAVKDLNLPRDSLIIAIYDEKGNLIIPSGETILPKRGTVVVFAKDSALKEIKKIMEEKVEESEE”, the “soluble on expression in E. coli” value was “soluble”.

Regarding “MAHHHHHHMKATKAKSGNTATNAVPFNNAPLKIVFLDCDGVVSPFGGPLFAPRQMKFLADIINGSGAQIVLSSSWRTTDFGRKEVARQLTQFGMPVFIDCTPTLPDKPRSVEILSWIDSNKRKYNIVNFVALDDINLPLSAPDRNFFARHAIVTNATTGLTEANVKQALQMLSDTNNI”, the “soluble on expression in E. coli” value was “soluble”.

As to “MTMHETTDRLFEIAKEQGVLKPADIAERLNISQQALKNWESRGIAAKALPEVAKAFGVSETWLRTGEGSRTAPVLIDPDLPHEVKDIHRPMTWSSNDPLPDDDYVFVPYLKESCFKGGVGTYEIPDYNGYRLPFGKSTLKRKGINPDNVFCCTLTGDSMEEKIAEDAAIAVDTGETAIRDGKIYAFAQDGMFRVKYLIRQPGNSVLIRSHNSGFYGDENAPLDSLTVIGRVFWWSVLD”, the “soluble on expression in E. coli” value is given as “not soluble”. Under “MGSDKIHHHHHHMGFVKPFSKINGSIIMVILGLLASACGQSGSETGGLVDANEPVSPQPNLGEQQGVLEQNLPVPNNQQTDYFRVILYGNSHVSGLPSLIQLLINTGVPQVRVEVKNVGGGFLDESYYNDAYQARLTATPWTHAIFQGQKYSQSGTSIYPTTAAQKWLDKAKSLGITPILFPEHPQDGKLEEGEYVYQLHQGITSMQSSCLAPIPLVWERVIQLLPDVHLHAPDGNHASSLGNFLTALVFYEVITGRSADLLPYLSNIAISEQIQSIFGQVVSEVLADKPACPTF” stands “not soluble”. Take “MYSFPNSFRFGWSQAGFQSEMGTPGSEDPNTDWYKWVHDPENMAAGLVSGDLPENGPGYWGNYKTFHDNAQKMGLKIARLNVEWSRIFPNPLPRPQNFDESKQDVTEVEINENELKRLDEYANKDALNHYREIFKDLKSRGLYFILNMYHWPLPLWLHDPIRVRRGDFTGPSGWLSTRTVYEFARFSAYIAWKFDDLVDEYSTMNEPNVVGGLGYVGVKSGFPPGYLSFELSRRAMYNIIQAHARAYDGIKSVSKKPVGIIYANSSFQPLTDKDMEAVEMAENDNRWWFFDAIIRGEITRGNEKIVRDDLKGRLDWIGVNYYTRTVVKRTEKGYVSLGGYGHGCERNSVSLAGLPTSDFGWEFFPEGLYDVLTKYWNRYHLYMYVTENGIADDADYQRPYYLVSHVYQVHRAINSGADVRGYLHWSLADNYEWASGFSMRFGLLKVDYNTKRLYWRPSALVYREIATNGAITDEIEHLNSVPPVKPLRH”: the “soluble on expression in E. coli” value is “soluble”.

Consider “MLESSLTFLLLPVGFPGEVLVTLARRAREAMPVPSLWLASTDPLEPPIEAYSWERMQFDAEKVNEHIHSVLYDYVREGIRIIGVVDADGYIPGFNFVFGLASTALGVATVYTRRLKTGGNGLYTERLLKEVLHEAGHLLGLDHCSNRECVMSFSRSVEEVDRKAPLFCSSCKAKLVLKYGSRGQLEHHHHHH”, for which the “soluble on expression in E. coli” value is on record as “soluble”.

For the sequence “GMDKLNEYRTKVRQLLTKHLQYKPSYGDVEVEQIFDEEHDHYQIISVGWNNQHRIYGPIMHLDIKNNKIWIQQNTTEADIALELMEMGIDKQDIVIGFHTPKMRQLSGFAVE”, the “soluble on expression in E. coli” value is “soluble”. For “MSLIAHSNEIARPIFKSQDQLFTLYQGDCNEVLPQFENQFDLIFADPPYFLSNDGLSIQSGKIVSVNKGDWDKEDGINGIDEFNYQWINNAKKALKDTGSLLISGTYHNIFSLGCVLQKLDFKILNLITWQKTNPPPNFSCRYLTHSAEQIIWARKSRKHKHVFNYEVLKKINNDKQMRDVWSFPAIAPWEKVNGKHPTQKPLALLVRLLLMASDENSLIGDPFSGSSTTGIAANLLKREFIGIEKESEFIKISMDRKIELDARYKEIRSKIKDLNHQEGHHHHHH” the value was “not soluble”; for “QDKPVFVYRLIARGTVEEKIQHLQQEKAALADGLFSEGNGDGWKLDEADIDAL”, “soluble”.

As to “MGSDKIHHHHHHMADLCVNLVPLFDALPQDEKMQIEKLVQHKNYQKGEVIIDPTINDNLVIVADGNAKQYTLDEDGYENVLQILHTGDYIGEDWLFGQKNINNYVEATEHSEICLLKRQDLLKLMHKQPELSIRLLELSIVKVSEMQKQIHLMALPKVEDRLLKYLQTYADEIGKNNFTLPLKMKDLALYLGTTPETLSRKFALLEKQGQLKRQLRRIELFEN”, the “soluble on expression in E. coli” value is “not soluble”. Take “MAKAPDVVDLLALAVERGASDLVITVGLPPMLKIDGEFHPTEYEPLTPQETRRLMYALMDEKQQRIFEEEKELDFSFSLPGKGRYRVNVFLQRGSVGGVLRVVPSAVKSFEELGLPKNIAEIAMSPRGLVLVTGPTGSGKSTTLASMIDYINERKACHIVTIEDPIEFFHKHKRAIVNQREIGSDTKSFHKALRSVLRQAPDVILVGEMRDYETIAAAITAAETGHLVMGTLHTNSAPETIDRIVDVFPENQQEQVRVQLSNNLVAVLTQQLLPKAFGGGRVLAYELMIATPAVRALIREGKTHQLRSVIQTGGQYGMITMDACLADLYRRKLITYEMGLARAVDPKEFMRLAGAPEGARR”: the “soluble on expression in E. coli” value is given as “soluble”. In the case of “MASTGLRVDLYEEHGRVGMPEHCTGIVSERTVNTIGREARETIIDSYDSLEIRFRGETLAVLDVGTVYRLDRVRLEELLLESLMSLGGRAQLGKRVHSVGIEGSVKAGGSEARYDAVILADGAHGELHRMLDLGYRGDYYYGLNILVPGKRESTILVDFILDRGLAFTWDVPTVGSVSVAGAMGTLAGVKRFFEVLKPRAFKVYGGRIPAGPPAERLRRGRVYVVGDAGGLVKPLSGGGLYPNAKAAKLAASLIKRGLDVGEALEKSLSIVSHELRAQHAVARLVYGTRVLETISRAVGGAPLRLRLDYDTHHQLVISTLSQVGALSSQRLAAAALRGGGLEAPLSLVKVLYHSSASAYKRLASGRLPGVLEHHHHHH”, the “soluble on expression in E. coli” value is recorded as “not soluble”. On to “MITFEKVTVENESVVKEMFKSHSLGEKKVQYCVKVDDTYIGVIDYSVQEERAVLSQLIIHFDYQGYGYGTNTYFTFEEMMKQRNVKEIKVLKEKLTEKAKSFIESFGFTSEDEEYVKKI”, for which the “soluble on expression in E. coli” value was “not soluble”. For “MSLNTGGNLLCVQLTVRRGPVREAKKPTPRIRNDGRYKIMQIGDLHLSTGVGACREAVPDSYNGGKCEADPRTLDFVNRVLDDEKPDLVVLSGDQVNGDTAPDAPTAMFKIVSLLIERKIPYAAIFGNHDDEKTMSREAQMAIMESLPFSLSTAGPADIDGVGNYYVEVLARGKTDHSALTIYLMDTHAYTPDERNFPGYDWVKPNQIEWFKKTAAGLKKNHNEYTGRHMDIAFIHIPLTEYADPALPRVGEWKEGVTAPVYNSGFRDALVEQGIVMVSAGHDHCNDYCSLSLAGEGETKIPALWMCYAGGSGFGGYAGYGGYHRRVRLFEVDTNEARIKTWKRLESGDTASRIDLQIIVDGGKPQPIAPVSEGHHHHHH”, the “soluble on expression in E. coli” value is recorded as “not soluble”. As to “MLILGIDTSTKICTCSIFDSENGVIAETSLSVKKNHSNIVMPIIDNLFKISDLTINDIDKIAVAIGPGSFTGVRIALGIAKGLAMALNKPLIAINELDILEAIASGNENEIIPLIDARKERVYYKYQNKYVDDYLINLTSNFDKNKKYIFVGDGAINYKNILKDNLGENAIILPMYNSFPRASILCELALNKEEANIYTLEPEYISKSRAEKHFLEHHHHHH”, the “soluble on expression in E. coli” value was “soluble”.
